# Experimental data: the nanobody polyreactivity screen of Harvey et al. (2022)
# Assay: yeast display, Sf9 membrane polyspecificity reagent, FACS + sequencing; frameworks hold sequencing errors
# How it was run: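 Galactose induction of a Saccharomyces cerevisiae BJ5465 synthetic nanobody display library ran 36–48 hours. The cells were then stained for 1 hour at 4 °C with 10% biotinylated, detergent-solubilized Sf9 membrane reagent, pulled down on streptavidin microbeads and FACS-sorted into low and high (top ~1%) gates on expression and reagent-binding fluorescence. Labels for polyreactivity follow the gate of origin.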
row,Sequence,polyreactivity (PSR sort gate)
1,QVQLVESGGGLVQAGGSLRLSCAASGSTLTRNAMGWYRQAPGKERELVAAITTSGGRTYYADSVKGRFTISRDNAKNTVYLQMNSLKPEDTAVYYCAARQRSEYVSGSLFYYWGQGTQVTVSS,high polyreactivity
2,QVQLVESGGGLVQAGGSLRLSCAASGSTLVFYAMGWYRQAPGKERELVAAIDSDGGTYYADSVKGRFTISRDNAKNTVYLQMNSLKPEDTAVYYCNAAGALIFGEGYYVEYDYDYWGQGTQVTVSS,low polyreactivity
3,QVQLVESGGGLVQAGGSLRLSCAASGSTLVTNPMGWYRQAPGKERELVAAITFSGGTTYYADSVKGRFTISRDTAKNTVYLHMNSLKPEDTAVYYCAAEIWLEYVGYDYWGQGTQVTVSS,high polyreactivity
4,QVQLVESGGGLVQAGGSLRLSCAASGSTLVYNGMVWYRQAPGKEREFVAAIRSNDGSTYYADSVKGRFTISRDNAKNTVYLQMNSLKPEDTAVYYCNNDVWDGYDWPEFDYWGQGTQVTVSS,low polyreactivity
5,QVQLVESGGGLVQAGGSLRLSCAASGSTLWFNAMGLYRPAPGKERELVAAINWSGGSTYYADSVKGRFTISRDNAKNTVYLQMNSLKPEDTAVYYCAAVYQYVHYVWYDYWGQGTQVTVSS,low polyreactivity
6,QVQLVESGGGLVQAGGSLRLSCAASGSTLWRYAMGWYRQAPGKEREFVAAISGSGGSTYYADSVKGRFTISRDNAKNTVYLLMNSLKPEDTAVYYCAASRKYRNPDRSMYYWGQGTQVTVSS,high polyreactivity
7,QVQLVESGGGLVQAGGSLRLSCAASGSTLWRYTMGWYRQAPGKVREFVADINRGSSTNYADSVKGRFTISRDNAKNSVYLQINSLKPEDTAVYYCAAAKVHYGYNSWYYYWRQGTQVTVSS,low polyreactivity
8,QVQLVESGGGLVQAGGSLRLSCAASGSTLWYYAMGWYRQAPGKERELVADITSSGNTNYADSVKGRFTISRDNAKNTVYLQMISLKPEDTAVYYCAADVTKYHDGHEYDYWGQGTQVTVSS,low polyreactivity
9,QVQLVESGGGLVQAGGSLRLSCAASGSTLYAYAMGWYRQAPGKERELVAAIRTGGSTYYADSVKGRFTISRDNAKNTVYLQMNSLKPEDTAVYYCAADHGYQYGYWGQGTQVTVSS,low polyreactivity
10,QVQLVESGGGLVQAGGSLRLSCAASGSTLYKYAMGWYRQAPGKERELVAAISWSGSSTYYADSVKGRFTISRDNAKNTVYLQMNSLKPEDTAVYYCAAYPRPYIGYTDGYVWYEFDYWGQGTQVTVSS,low polyreactivity
11,QVQLVESGGGLVQAGGSLRLSCAASGSTLYPYAMGWYRQAPGKERELVAVITLRGGSTYYADSVKGRFTISRDNAKNTVYLQMNSLKPEDTAVYYCATGNSKGRRTVRYGYWGQGTQVTVSS,high polyreactivity
12,QVQLVESGGGLVQAGGSLRLSCAASGSTLYPYDMGWYRQAPGTERELVAAIDSGGSTNYADSVKGRFTISRDNAKNTVYLQMNSLKPEDTAVYFFAADASGENDYWGQGTQVTVSS,low polyreactivity
13,QVQLVESGGGLVQAGGSLRLSCAASGSTLYRNAMGWYRQQPGKERELVAGITSSGTTTYYADSVKGRFTISRDNAKNTVYLQMNSLKPEDTAVYYCAARSLGFYYYDMDYWGQGTQVTVSS,low polyreactivity
14,QVQLVESGGGLVQAGGSLRLSCAASGSTLYRYAMGWYRQAPGKEREFVAAISVSGARTYYADSVKGRFTISRDNAKNTVYLQMNSLKPEDTAVYYCAARGGYQYDYWGQGTQVTVSS,high polyreactivity
15,QVQLVESGGGLVQAGGSLRLSCAASGSTLYRYAMGWYRQAPGKERELVAAISSAGSTHYADSVKGRFTISRDNAKNTVYLQMNSLKPEDTAVYYCAAKRYLKYGYWGQGTQVTVSS,high polyreactivity
16,QVQLVESGGGLVQAGGSLRLSCAASGSTLYRYTMGWYRQAPGKERELVAAISSGGNTYYADSVKGRFTISRDNAKNTVYLQMNSLKPEDTAVYYCAAEDSVYIPYYDAYDYWGQGTQVTVSS,low polyreactivity
17,QVQLVESGGGLVQAGGSLRLSCAASGSTLYSNAMGWYRQAPGKERELVATIDWSGGRTYYADSVKGRFTISRDNAKNTVYLQMNSLKPEDTAVYYCAARQSRDFRYRGFYYWGQGTQVTVSS,high polyreactivity
18,QVQLVESGGGLVQAGGSLRLSCAASGSTLYTYAMGWYRQAPGKERELVATISWSGSSTYYADSVKGRFTISRDNAKNTVYLQMNSLKPEDTAVYDCAAPYHYWYRLDYWGQGTQVTVSA,high polyreactivity
19,QVQLVESGGGLVQAGGSLRLSCAASGSTLYVYTMGWYRQAPGKERELVATINTSGSRTYYADSVKGRFTISRDNAKNTVYLQMNSLKPEDTAVYYCAAEYVGKGTPDDYDYWGQGTQVTVSS,high polyreactivity
20,QVQLVESGGGLVQAGGSLRLSCAASGSTLYYNAMGWYRQAPGKERELVAAISWSGGSTYYADSVKGRFTISRDNAKNTVYLQMNSLKPEDTAVYYCAADVNYYQHRLYYWGQGTQVTVSS,low polyreactivity
21,QVQLVESGGGLVQAGGSLRLSCAASGSTLYYYAMGWYRQAPGKERELVAAITYSGGNTYYADSVKGRFTISRDNAKNTVYFQMNSLKPEDTAVYYCAADDWSSDYIRYEYWGQGTQVTVSS,low polyreactivity
22,QVQLVESGGGLVQAGGSLRLSCAASGSTLYYYAMGWYRQAPGKERELVATITNGGSTNYADSVKGRFTISRYNAKNTVYLQMNSLKPEDTAVYYCNARRGYWGSNYWGEGTQVTVSS,high polyreactivity

row,Sequence,polyreactivity (PSR sort gate)
1,QVQLVESGGGLVQAGGSLRLSCAASGSTLYYYAMGWYRQAPGTERELGAAITWSGDSTYYADSVKGRFTISRDNAKNTVYLQMNSLKPEDTAVYYCAAEVESYDPYYTYDYWGQGTQVTVSS,high polyreactivity
2,QVQLVESGGGLVQAGGSLRLSCAASGSTNGRNAIGWSRQAPRKERELVAAISSGGSTSYADSVKVRFTISRDNAKYTDYLQMNSLKPVDTAVYYCAAQSVGSQYDYWGQGTQVTVSS,low polyreactivity
3,QVQLVESGGGLVQAGGSLRLSCAASGSTNRAYAMGWYRQAPGKERELVAAISYSGDSTYYADSVKGRFTISRDNAKNTVYLQMNSLKPEVTAVYYCNTAVWGPHRYDYWGQGTQVTVSS,low polyreactivity
4,QVQLVESGGGLVQAGGSLRLSCAASGSTPVYAMGWYRQAPGKERELVAAIRRRASSTYYADSVKGRFTISRDNAKNPVYLQMNSLKPEDTAVYYCAVGRVNGVLLGYWGQGTQVTVSS,high polyreactivity
5,QVQLVESGGGLVQAGGSLRLSCAASGSTQYGYAMGWYRQAPRKERELVAAINTGGSTNYADSVKGRFSISRDNAKNSVYLQMNSLKPEDTAVYYCAADYEWDAFSYDYWGQGTQVTVSS,low polyreactivity
6,QVQLVESGGGLVQAGGSLRLSCAASGSTSDINAMGWYRQAPGKERELVAVITFSGGSTNYADSVKGRFTISRDNAKNTVYLQMNSLKPEDTAVYYCNADTLTTTRRFNPYDYWGQGTQVTVSS,low polyreactivity
7,QVQLVESGGGLVQAGGSLRLSCAASGSTSGFYAMGWYRQAPGKERELVAAIDVSGGSTYYADSVKGRFTISRDNAKNTVYLQIHSLKPEDTAVYYCAAYRRNVWSARYGYWGQGTQVTVSS,high polyreactivity
8,QVQLVESGGGLVQAGGSLRLSCAASGSTSGIYAMGWSRQAPGKERELVAAIDTSGGSTYADSVKGRFTISRDNAKNTVYLQMNSLKPEATAVYYCARTWGLRYRWSYGRSRYNFWGQGTQVTVSS,low polyreactivity
9,QVQLVESGGGLVQAGGSLRLSCAASGSTSGKNAMGWYRQAPGKERELVAAIRNSGGTTYYADSVKGRFTISRDNAKNTVYLQMNSLKPEDTAVYYCATRYYLKFLDGYNYWGQGTQVTVSS,high polyreactivity
10,QVQLVESGGGLVQAGGSLRLSCAASGSTSGRNVMGWYRQSPGKERELVAAISSRGGSTYYADSVKGRFTISRDNEKNTVYLQMNSLKPEDTAVYYCASRYGAYSGYDYWGQGTQVTVSS,high polyreactivity
11,QVQLVESGGGLVQAGGSLRLSCAASGSTSIYYTMGWYRQAPGKERELVAYADSVKGRFTISRDNAKNTVYLQMNSMKPEDTEVYFCAAPRTYYSELTSPYDYWGQGTQVTVSS,low polyreactivity
12,QVQLVESGGGLVQAGGSLRLSCAASGSTSLGYAMGWYRQAPGKERELVASISWTGGGTYYADSVKGRFTLSRDNAKNTVYLQMNSLKPDDTAVYYCAADLTGYHPYIYGYWGQGTQVTVSS,low polyreactivity
13,QVQLVESGGGLVQAGGSLRLSCAASGSTSNVYAMGWYRQAPGKERELVAAIRWSGGNTYYADSVKGRFTISRDNAKNTFYLQMNSLKPEDTAVYYCAAFYRYVSTIFDYWGQGTQVTVSS,high polyreactivity
14,QVQLVESGGGLVQAGGSLRLSCAASGSTSPFNAMGWYRQAPGKERELVASITSSGSTNYADSVKGLFTISRDNAKYTVYFQMNSLKPEDTAVYYCATEGVVSETIYDYWGQGSQVTVSS,low polyreactivity
15,QVQLVESGGGLVQAGGSLRLSCAASGSTSPFYVMGWYRQAPGKERELVAAISYSGGSTYYADSVKGRFTISRDNAKNTVYLQMISLKPEDTAVYYCAARYRLTYGLYGYWGQGTQVTVSS,high polyreactivity
16,QVQLVESGGGLVQAGGSLRLSCAASGSTSPGYAMGWYRLEPGKERELVAAITFRGTRTYYADSVKGRFTISRDNAKKTVYLLMNSLKPEDTAVYYCNVVGYGPNRGRVDYWGQGTQVTVSS,high polyreactivity
17,QVQLVESGGGLVQAGGSLRLSCAASGSTSPGYAMGWYRQAPGKERELVAAITFRGTRTYYSDSVKGRFTISRDNAKNTVYLQMNSQKPDDTAVYYCNVVGYGPNRGRVDYCGQGTQVTVSS,high polyreactivity
18,QVQLVESGGGLVQAGGSLRLSCAASGSTSPYYDRGWSRQAPGKERELVAAITSGGSTNYADSVKGRFTISRDYAKNSVYLQMNSLKPEDTAVYYCATDWSDDLWTWYYYWGQGTQVTVSS,high polyreactivity
19,QVQLVESGGGLVQAGGSLRLSCAASGSTSRQYAMGWYRQAPGKERELVAAITWSGASTNYADSVKGRFTISRDNAKNTVYLQMNSLKREDTAVYYCAAYRWVYPDVIYDYWGQGTQVTVSS,high polyreactivity
20,QVQLVESGGGLVQAGGSLRLSCAASGSTSSVYAMGWYRQAPGKERELVAAISYRGARTYYADSVKGRFTISRDNAKNTVYFQMNSLKPEDTAVYYCAAENYPRRPRYDYWGQATQVTVSS,high polyreactivity
21,QVQLVESGGGLVQAGGSLRLSCAASGSTSTWYAMGWYRQAPGKERELVATITGSGDTTYYADSVKGRFTISRDNAKNTVYLQMNSLKPEDTAVYYCAADYDPDDDTYDYWGQGTQVTVSS,low polyreactivity
